Data on 17 molecules can be found in patent US20250129170A1 (IMMUNEDGE, published 2025).

A word on the % Inhibition: it is the drop in the measured response relative to a control, in per cent.

In test [1] the target is T1, soluble hetero-EPOR (EPOR-CD131-Fc) (human, UniProt P19235 25-250; P32927 17-443).
T1 construct: extracellular domain; also called soluble EPOR-CD131-Fc; not shown: human Fc (captured by anti-human Fc)
T1 sequence (looked up) 1: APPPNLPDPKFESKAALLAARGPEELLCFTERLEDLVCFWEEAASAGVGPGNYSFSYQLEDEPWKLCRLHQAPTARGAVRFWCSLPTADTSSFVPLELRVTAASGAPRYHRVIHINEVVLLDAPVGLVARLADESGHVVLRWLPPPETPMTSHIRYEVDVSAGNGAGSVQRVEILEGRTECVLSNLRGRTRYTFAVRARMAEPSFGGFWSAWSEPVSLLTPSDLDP
T1 sequence (looked up) 2: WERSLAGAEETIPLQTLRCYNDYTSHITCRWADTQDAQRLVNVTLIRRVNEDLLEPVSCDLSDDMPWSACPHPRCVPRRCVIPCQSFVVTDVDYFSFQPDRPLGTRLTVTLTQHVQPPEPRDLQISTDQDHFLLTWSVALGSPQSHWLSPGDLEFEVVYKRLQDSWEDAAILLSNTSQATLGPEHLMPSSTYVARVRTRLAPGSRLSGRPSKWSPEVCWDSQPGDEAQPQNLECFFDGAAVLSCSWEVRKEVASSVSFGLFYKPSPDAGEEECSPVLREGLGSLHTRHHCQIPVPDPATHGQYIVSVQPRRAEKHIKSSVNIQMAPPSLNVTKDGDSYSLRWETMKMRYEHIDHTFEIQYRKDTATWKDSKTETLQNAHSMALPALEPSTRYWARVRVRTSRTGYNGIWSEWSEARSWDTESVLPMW
The experiment in a line: Octet BLI, EPOR-CD131-Fc on anti-human Fc sensor, 10 nM EPO +/- hybridoma supernatant; competitor EPO. A general note: Biolayer interferometry detects binding as a change in optical thickness at a sensor tip.

For test [2], the target named is T2, human CD131 on 293T/CD131 cells (human, UniProt P32927 17-897).
T2 construct: whole, on cells; also called hCD131
T2 sequence (looked up): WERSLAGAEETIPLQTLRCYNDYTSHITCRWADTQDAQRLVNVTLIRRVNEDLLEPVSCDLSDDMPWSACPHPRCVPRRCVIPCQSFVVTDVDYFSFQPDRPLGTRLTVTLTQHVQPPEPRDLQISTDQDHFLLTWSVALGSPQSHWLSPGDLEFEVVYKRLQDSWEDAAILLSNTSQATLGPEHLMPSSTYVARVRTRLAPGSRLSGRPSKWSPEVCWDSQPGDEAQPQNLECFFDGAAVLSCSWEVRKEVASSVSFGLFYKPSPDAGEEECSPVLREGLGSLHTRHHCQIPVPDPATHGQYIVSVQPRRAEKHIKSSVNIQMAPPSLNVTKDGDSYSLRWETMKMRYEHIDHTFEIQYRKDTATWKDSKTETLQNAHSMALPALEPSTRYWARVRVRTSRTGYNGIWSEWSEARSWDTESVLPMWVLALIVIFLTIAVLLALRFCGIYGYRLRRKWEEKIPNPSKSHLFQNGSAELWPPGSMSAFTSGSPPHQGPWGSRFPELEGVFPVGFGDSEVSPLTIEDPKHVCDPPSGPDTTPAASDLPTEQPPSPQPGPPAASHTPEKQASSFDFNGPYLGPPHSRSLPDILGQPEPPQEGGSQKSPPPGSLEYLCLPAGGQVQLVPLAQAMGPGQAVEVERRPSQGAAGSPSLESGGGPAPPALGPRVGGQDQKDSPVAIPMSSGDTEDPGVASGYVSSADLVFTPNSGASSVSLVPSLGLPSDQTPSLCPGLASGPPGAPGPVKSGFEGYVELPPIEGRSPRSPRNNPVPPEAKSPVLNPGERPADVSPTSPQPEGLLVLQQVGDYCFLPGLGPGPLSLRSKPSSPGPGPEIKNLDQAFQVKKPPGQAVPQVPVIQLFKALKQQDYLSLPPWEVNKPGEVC
Description: flow cytometry on 293T/CD131 cells, purified antibody, PE labeled secondary antibody.

B1: EPORab - M26 (antibody, V domains shown)
VH: QVQLVQSGVEVKKPGASVKVSCKASGYAFSNNDISWVRQAPGQGLEWMAWITTSNGNTNYAPKLQGRVTMTTDTSTSTAYMELRSLKSDDTAVYYCARGGRTGYFDYWGQGTLVTVSS
VL: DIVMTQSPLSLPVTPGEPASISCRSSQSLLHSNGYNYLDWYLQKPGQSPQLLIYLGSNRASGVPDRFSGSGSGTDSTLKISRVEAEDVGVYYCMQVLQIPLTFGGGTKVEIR
notes: hybridoma supernatant, ATX-GK mouse; also called hybridoma clone M26
Consider B1, for which, in test [1], the “% Inhibition” value came to 31.3%.

B2: EPORab - M87 (antibody, V domains shown)
VH: QVQLVQSGAEVKKPGASMKVSCKASGYTFTQNHISWVRQAPGQGLEWMGWISAYSGNTNYAWKFQGRVTMTTDTSTNTAYMELRSLRSDDTAVYYCARDRGNWNDFAYWGRGTLVTVSS
VL: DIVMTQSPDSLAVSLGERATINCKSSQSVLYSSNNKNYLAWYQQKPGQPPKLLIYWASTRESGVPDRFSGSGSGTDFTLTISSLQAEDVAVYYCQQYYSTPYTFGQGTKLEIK
notes: hybridoma supernatant, ATX-GK mouse; also called hybridoma clone M87
Turning to B2, the “% Inhibition” value in test [1] was 11.5%.

B3: EPORab - M54 (antibody, V domains shown)
VH: QLQLQESGPGLVKPSETLSLTCSVSGGSISSSGYYWGWIRQPPGKGLDWIGTIYYSGNTNYNPSLNSRVTISVDTSRNQFSLKLRSVTAADTAVYYCARGYSYGPFDYWGQGTLVTVSS
VL: EIVMTQSPATLSVSPGERATLSCRASQSVSSNLAWYQLKPGQAPRLLIYGASTRATGIPARFSGSGSGTEFTLTISSLQSEDFAVYYCHPYNNWPLTFGGGTKVEIK
notes: hybridoma supernatant, ATX-GK mouse; also called hybridoma clone M54
Take B3: the “% Inhibition” value in test [1] is 16%.

B4: EPORab - M71 (antibody, V domains shown)
VH: QVQLVESGAEVKKPRASVKVSCKTSGYTFTRHYMHWVRQAPGQGLEWMGIINPNNNSTSYAQKFQGRITMTRDTSTSTVYMELSSLRSEDTAVYYCARFRIVGTTLYFDYWGQGTLVTVSS
VL: EIVMTQSPATLSVSPGERATLSCRASQSVSSNLAWYQLKPGQAPRLLIYGASTRATGIPARFSGSGSGTEFTLTISSLQSEDFAVYYCHPYNNWPLTFGGGTKVEIK
notes: hybridoma supernatant, ATX-GK mouse; also called hybridoma clone M71
As for B4, the “% Inhibition” value in test [1] is 0.1%.

B5: EPORab - M9 (antibody, V domains shown)
VH: QVQLQESGPGLVKPSQTLSLTCDISGDSVSSNSAAWNWIRQSPSRGLEWLGRTYYRSKWYNDYAVAVKSRITINPDTSKNQFSLQLNSVTPEDTAVYYCARESSGWYEDYYYYYMDVWGKGTTVTVSS
VL: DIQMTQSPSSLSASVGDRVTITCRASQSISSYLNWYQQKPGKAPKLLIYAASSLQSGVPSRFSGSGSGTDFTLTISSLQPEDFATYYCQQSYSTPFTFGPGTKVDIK
notes: hybridoma supernatant, ATX-GK mouse; also called hybridoma clone M9
Consider B5, for which the “% Inhibition” value in test [1] worked out at 18.1%.

B6: EPORab - M38 (antibody, V domains shown)
VH: QVQLVESGGGVVQPGRSLRLSCAASGFTFSSYGMHWVRQAPGKGLEWVAFIWYDGRNKNYVDSVKGRFTISRDNSKNTLYLQMNSLRAEDTAVYYCARDRGDYVFDYWGQGTLVTVSS
VL: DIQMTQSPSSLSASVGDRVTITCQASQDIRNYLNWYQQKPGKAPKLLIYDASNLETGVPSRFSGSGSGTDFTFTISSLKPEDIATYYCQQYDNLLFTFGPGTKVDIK
notes: hybridoma supernatant, ATX-GK mouse; also called hybridoma clone M38
In the case of B6, in test [1], the “% Inhibition” value came to 0.5%.

B7: EPORab - M41 (antibody, V domains shown)
VH: QVQLVESGGGLVQPGRSLRLSCAASGFTFDDYAIHWVRQAPGKGLEWVSGISYNSENIGYADSVKGRFTISRDNAKNSLYLQMNSLRSEDTALYYCAKDMFLTWFSSFDYWGQGTLVTVSS
VL: ETKLTQSPGTLSLSPGERTTLSCRASQSISNNYLAWYQQKPGQAPRLLIYRASTRATGIPDRFSGSGSGTDFTLTIRRLEPEDFAVYYCQRYGRSPLTFGGGTKVEIK
notes: hybridoma supernatant, ATX-GK mouse; also called hybridoma clone M41
In the case of B7, in test [1], the “% Inhibition” value worked out at 18.7%.

B8: hybridoma clone M41 (antibody, V domains shown)
VH: QVQLVESGGGLVQPGRSLRLSCAASGFTFDDYAIHWVRQAPGKGLEWVSGISYNSENIGYADSVKGRFTISRDNAKNSLYLQMNSLRSEDTALYYCAKDMFLTWFSSFDYWGQGTLVTVSS
VL: ETKLTQSPGTLSLSPGERTTLSCRASQSISNNYLAWYQQKPGQAPRLLIYRASTRATGIPDRFSGSGSGTDFTLTIRRLEPEDFAVYYCQRYGRSPLTFGGGTKVEIK
notes: Hybridoma from ATX-GK mice; tested as supernatant (BLI) and purified (cell staining, Stat5 assay); also called EPORab - M41
Consider B8, for which the binding result in test [2] was “no binding”.

B9: EPORab - M37 (antibody, V domains shown)
VH: QVQLQESGPGLVKPSGTLSLTCAVSGGSITTNNWWSWVRQSPGKGLEWIGEIYHSGNTNYNPSLKSRVTMSVDKSKNQFSLNLNSVIVADTAVYYCASALGTYYGAFDTWGQGTMVTVSA
VL: DIQMTQSPSSLSASVGDRVTITCRASQSISNYLNWYQQKPGKAPKLLIYAASSLQSGVPSRFSGSGSGTDFTLTISSLQPEDFTTYYCQQSYGTPYTFGQGAKLQIK
notes: hybridoma supernatant, ATX-GK mouse; also called hybridoma clone M37
In the case of B9, the “% Inhibition” value in test [1] was -7.1%.

B10: EPORab - M43 (antibody, V domains shown)
VH: QVQLQESGPGLVKPSGTLSLTCAVSGGSISSSNWWSWVRQPPGKGLEWIGEIYHSGSINYNPSLKSRVTISVDKSKNQFSLKLTSVTAADTAVYYCASALGNYYGAFDLWGQGTMVTVSS
VL: DIVMTQSPSSLSASVGDRVTITCRASQTISSYLNWYQQKPGKAPKLLICAASSLQGGVPSRFSGSGSGTDFTLTISSLQPEDFAPYYCQQSYSTPYTFGQGTKLEIK
notes: hybridoma supernatant, ATX-GK mouse; also called hybridoma clone M43
Take B10: the “% Inhibition” value in test [1] is -11.4%.

B11: EPORab - M24 (antibody, V domains shown)
VH: EVQLVESGGGLVKPGGSLRLSCAASGFTFTNAWMNWVRQAPGKGLEWIGRIKSKTAGETTDYAAPVKGRFTISRDDSKNTLYLQMNSLKTEDTAVYYCTTDPDYGDPYYYYYFMDVWGKGTTVTVSS
VL: DIQMTQSPSSLSASIGDRVTISCRASQSISSYLNWYQQKPGKAPKLLIYGASSLQSGVPSRFSGSGSGTDFTLTISSLQPEDFATYYCQQSYSLPLTFGGGTKVEIK
notes: hybridoma supernatant, ATX-GK mouse; also called hybridoma clone M24
With B11, the “% Inhibition” value in test [1] worked out at 9.5%.

B12: EPORab - M19 (antibody, V domains shown)
VH: QLQLQESGPGLVKPSETLSLTCTVSGGSISSSNHYWGWIRQPPGKGLEWIGTLYYSGSTYYEPSLKSRVTISVDTSMNQFSLNLSSVTATDTAVYNCARGDRYGPFDYWGQGTLVTVSS
VL: DIVMTQSPSSLSASVGDRVTITCRASQGIRDDLGWYQQKPEKAPKRLICAASSLQSGVPSRFSGSGSGTEFTLTISSLQPEDFATYYCLQYNRYPWTFGQGTKVEIK
notes: hybridoma supernatant, ATX-GK mouse; also called hybridoma clone M19
For B12, the “% Inhibition” value in test [1] is 10.4%.

B13: EPORab - M1 (antibody, V domains shown)
VH: QVQLQESGPGLVKPSQTLSLTCTVSGGSISSGGYYWSWIRQHPGKGLEWIGNIYYSGNPYYNPSLKSRLIISVDTSKNQFSLRLNSVTAADTAVYYCATFYYGSGSYYNEDYWGQGTLVTVSS
VL: DIQMTQSPSSLSASVGDRVTITCRASQGIRIDLGWYQQKPGKAPKRLIYAASSLKSGVPSRFSGSGSGTEFTLTISSLQPEDFTTYFCLQHNSYPYTFGQGTKLEIK
notes: hybridoma supernatant, ATX-GK mouse; also called hybridoma clone M1
Regarding B13, the “% Inhibition” value in test [1] is 31.2%.

B14: EPORab - M2 (antibody, V domains shown)
VH: QVQLVESGGGLVKPGGSLRLSCAASGFTFSDSYMSWIRQAPGKGLEWVSYISNSGSYMYYADSVKGRFTISRDNAKNSLYLQMNNLRAEDTAVYYCARDKLGIGDYWGQGTLVTVSS
VL: DIQMTQSPSSLSASVGDRVTITCRASQGIRNDLGWFQQKPGKAPKRLIYAASRLQSGVPSRFSGSGSGTEFTLTISSLQPEDFATYCCLQHHTYPPTFGQGTKVEIK
notes: hybridoma supernatant, ATX-GK mouse; also called hybridoma clone M2
As to B14, the “% Inhibition” value in test [1] worked out at 93.6%.

B15: EPORab - M52 (antibody, V domains shown)
VH: QLQLQESGPGLAKPSETLSLTCTVSGVSISSNSYYWGWIRQPPGKGLEWIGNIYHSGRTYYNPSLRSRVTISVDTSKNQFSLKLNSVTAADTAVYYCARGYSYGAFDYWGQGTLVTVSS
VL: DIQMTQSPSSLSASVGDRVTITCRASQGIRNDLGWYQQKPGKAPKRLIYAASSLQSGIPSRFSGSGSGTEFTLTISSLQPEDFATYYCLQHNNYPWTFGQGTKVEIK
notes: hybridoma supernatant, ATX-GK mouse; also called hybridoma clone M52
Consider B15, for which, in test [1], the “% Inhibition” value was 7.4%.

B16: hybridoma clone M2 (antibody, V domains shown)
VH: QVQLVESGGGLVKPGGSLRLSCAASGFTFSDSYMSWIRQAPGKGLEWVSYISNSGSYMYYADSVKGRFTISRDNAKNSLYLQMNNLRAEDTAVYYCARDKLGIGDYWGQGTLVTVSS
VL: DIQMTQSPSSLSASVGDRVTITCRASQGIRNDLGWFQQKPGKAPKRLIYAASRLQSGVPSRFSGSGSGTEFTLTISSLQPEDFATYCCLQHHTYPPTFGQGTKVEIK
notes: Hybridoma from ATX-GK mice; tested as supernatant (BLI) and purified (cell staining, Stat5 assay); also called EPORab - M2
Take B16: the binding result in test [2] is listed as “no binding”.

B17: EPORab - M80 (antibody, V domains shown)
VH: QVQLVESGGGLVKPGGSLRLSCAASGFTFSDSYMSWIRQAPGKGLEWVSYISNSGSYMYYADSVKGRFTISRDNAKNSLYLQMNNLRAEDTAVYYCARDKLGIGDYWGQGTLVTVSS
VL: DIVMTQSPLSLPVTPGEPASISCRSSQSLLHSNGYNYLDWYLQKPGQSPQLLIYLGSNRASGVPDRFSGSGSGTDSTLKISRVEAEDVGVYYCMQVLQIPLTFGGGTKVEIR
notes: hybridoma supernatant, ATX-GK mouse; printed VH equals that of M2; also called hybridoma clone M80
On to B17, for which, in test [1], the “% Inhibition” value is -1.8%.
